Laboratory results from patent US20130302346A1 (LEXICON PHARMACEUTICALS, published 2013).

Assays:
[1] = molecular target: T1, Human NOTUM R144A/R145A (human, UniProt Q6P988 20-496); assay: ELISA
T1 construct: Alanine mutant, expressed and secreted after transient transfection
T1 sequence: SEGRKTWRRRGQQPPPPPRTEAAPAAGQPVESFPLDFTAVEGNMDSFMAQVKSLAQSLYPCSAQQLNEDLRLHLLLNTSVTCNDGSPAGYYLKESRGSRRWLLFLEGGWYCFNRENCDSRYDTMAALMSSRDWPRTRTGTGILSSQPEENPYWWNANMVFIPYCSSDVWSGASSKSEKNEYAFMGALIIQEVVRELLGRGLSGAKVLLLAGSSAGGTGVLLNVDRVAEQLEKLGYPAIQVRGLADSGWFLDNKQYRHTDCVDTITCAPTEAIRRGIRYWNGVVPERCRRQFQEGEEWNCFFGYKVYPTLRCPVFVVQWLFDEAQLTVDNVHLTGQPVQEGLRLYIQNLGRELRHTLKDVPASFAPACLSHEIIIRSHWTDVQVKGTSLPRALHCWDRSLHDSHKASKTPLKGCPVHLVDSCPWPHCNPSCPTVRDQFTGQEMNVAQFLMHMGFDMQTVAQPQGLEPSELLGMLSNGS

[2] = molecular target: T2, Guinea pig NOTUM (guinea pig, UniProt Q6P988 21-496 (human entry)); assay: ELISA
T2 construct: Expressed by transient transfection
T2 chain: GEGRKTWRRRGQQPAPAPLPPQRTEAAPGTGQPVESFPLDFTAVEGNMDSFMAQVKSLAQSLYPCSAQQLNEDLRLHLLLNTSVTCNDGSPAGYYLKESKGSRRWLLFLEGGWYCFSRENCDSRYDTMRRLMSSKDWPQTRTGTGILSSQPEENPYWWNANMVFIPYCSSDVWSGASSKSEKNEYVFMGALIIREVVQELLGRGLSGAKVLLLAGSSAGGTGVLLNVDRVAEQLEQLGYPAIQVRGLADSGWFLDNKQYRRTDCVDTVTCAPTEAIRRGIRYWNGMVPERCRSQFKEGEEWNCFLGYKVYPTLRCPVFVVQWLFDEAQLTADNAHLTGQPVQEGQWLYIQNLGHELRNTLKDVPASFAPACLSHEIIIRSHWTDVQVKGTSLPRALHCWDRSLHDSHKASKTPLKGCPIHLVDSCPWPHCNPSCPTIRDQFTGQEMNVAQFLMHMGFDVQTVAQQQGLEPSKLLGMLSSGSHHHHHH

[3] = molecular target: T3, Human NOTUM D141S (human, UniProt Q6P988 20-496); assay: ELISA
T3 construct: Point mutant made by transient transfection
T3 sequence: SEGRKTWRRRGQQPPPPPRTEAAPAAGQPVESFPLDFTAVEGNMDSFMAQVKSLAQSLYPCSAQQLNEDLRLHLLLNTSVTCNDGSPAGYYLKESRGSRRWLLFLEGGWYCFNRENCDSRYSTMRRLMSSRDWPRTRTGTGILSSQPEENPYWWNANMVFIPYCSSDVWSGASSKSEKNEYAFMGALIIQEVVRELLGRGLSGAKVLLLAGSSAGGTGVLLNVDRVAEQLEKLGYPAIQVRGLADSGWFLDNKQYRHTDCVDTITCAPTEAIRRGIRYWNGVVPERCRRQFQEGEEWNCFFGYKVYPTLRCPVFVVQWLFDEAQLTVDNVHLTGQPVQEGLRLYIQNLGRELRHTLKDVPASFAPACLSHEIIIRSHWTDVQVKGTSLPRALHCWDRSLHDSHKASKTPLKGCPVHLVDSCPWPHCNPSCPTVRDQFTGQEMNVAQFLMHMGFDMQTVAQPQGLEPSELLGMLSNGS

[4] = molecular target: T4, Mouse NOTUM (mouse, UniProt Q8R116 20-503); assay: ELISA (column 'Mouse NOTUM binding')
T4 construct: also called recombinant mouse NOTUM
T4 sequence: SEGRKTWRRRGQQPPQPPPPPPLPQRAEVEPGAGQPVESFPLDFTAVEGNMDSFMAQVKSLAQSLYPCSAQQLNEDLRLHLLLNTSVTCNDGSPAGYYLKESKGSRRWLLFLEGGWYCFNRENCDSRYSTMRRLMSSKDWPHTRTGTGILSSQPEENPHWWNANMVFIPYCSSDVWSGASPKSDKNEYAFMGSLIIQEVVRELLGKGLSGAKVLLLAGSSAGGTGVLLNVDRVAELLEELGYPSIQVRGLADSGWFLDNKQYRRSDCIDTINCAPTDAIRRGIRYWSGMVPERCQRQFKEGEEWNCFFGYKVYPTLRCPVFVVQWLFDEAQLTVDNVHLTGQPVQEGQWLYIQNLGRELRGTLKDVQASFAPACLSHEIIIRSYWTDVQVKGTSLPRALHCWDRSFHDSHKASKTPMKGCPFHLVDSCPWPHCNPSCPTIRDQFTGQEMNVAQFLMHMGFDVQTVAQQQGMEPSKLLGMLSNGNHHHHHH

[5] = molecular target: T5, M-H; assay: ELISA on conditioned medium of HEK293F transfected with the NOTUM construct (Example 6.7)
T5 construct: Drawn on the sheet as mouse N-terminal part and human C-terminal part; Conditioned medium from transfected HEK293F; also called Mouse-human chimeric NOTUM
T5 single chain: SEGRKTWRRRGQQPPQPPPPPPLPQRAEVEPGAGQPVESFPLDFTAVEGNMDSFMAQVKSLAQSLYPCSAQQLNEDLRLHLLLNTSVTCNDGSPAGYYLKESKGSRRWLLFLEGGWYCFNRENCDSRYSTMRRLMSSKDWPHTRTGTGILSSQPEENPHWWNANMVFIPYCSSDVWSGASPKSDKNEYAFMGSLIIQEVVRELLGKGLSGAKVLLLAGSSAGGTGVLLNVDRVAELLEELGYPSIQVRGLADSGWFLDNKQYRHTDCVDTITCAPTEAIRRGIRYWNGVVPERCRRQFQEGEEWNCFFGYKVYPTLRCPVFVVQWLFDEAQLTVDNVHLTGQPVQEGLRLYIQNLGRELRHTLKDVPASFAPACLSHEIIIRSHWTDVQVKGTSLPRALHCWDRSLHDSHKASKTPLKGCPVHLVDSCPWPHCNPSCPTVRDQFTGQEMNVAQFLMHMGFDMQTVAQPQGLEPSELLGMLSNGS
Excerpt: The sequences of those proteins are shown in Section 7 (Table of Sequences). The conditioned media were used in ELISA format to determine antibody specificity. […] Within this region, mouse and human NOTUM differ at five positions (R115K, D141S. R150K, R154H, and Y171H, based on the human sequence numbering). Human NOTUM point mutants were generated by transient transfection of constructs expressing human NOTUM with the mouse amino acid at each of these five positions and the point mutants were all shown to be functional in the OPTS assay.

Binder	binding result [1]	binding result [2]	binding result [3]	binding result [4]	binding result [5]
MAb 1.802 (antibody, V domains shown, Mouse monoclonal antibody from Campaign 1 (raised against human NOTUM), IgG1) VH: EVQLVESGGGLVKPGGSLKLSCAASGFTFSDYGMHWFRQAPEKGLEWVAYISSGSRTVYYADTVKGRFTISRDNAKNTLSLQMTSLRSEDTAMYYCARKHYNGGYFDVWGTGTTVTVSS VL: DIVLTQSPASLAVSLGQRATISCRASKIVSTSGYSYMHWYQQKPGQPPKLLIYLASNLESGVPARFSGSGSGTDFTLNIHPVEEEDAATYYCQHSRELPPTFGSGTKLEIKR	no binding	binds	no binding	no binding	no binding
MAb 1.846 (antibody, IgG2b, V domains shown, Mouse monoclonal antibody from Campaign 1, IgG2b) VH: EVQLVESGGDLVKPGGSLKLSCAASGFTFSDYGMHWLRQAPEKGLEWVAYISSGSTTLSYANTMKGRFTISRDNAKKTLSLQMTSLRSEDTAIYYCARKNYNGGYFDVWGTGTTVTVSS VL: DIVLTQSPASLVVSLGQRATISCRASKSVSESGYSYMHWYQQKPGQPPKLLIYLASNLESGVPARFSGSGSGTDFTLNIHPVEEGDATTYYCQHSRVLPPTFGSGTKLEIKR	no binding	binds	no binding	no binding	no binding
MAb 1.815 (antibody, IgG1, V domains shown, Mouse monoclonal antibody from Campaign 1, IgG1) VH: DVQLLESGGGLVQPGGSRKLSCAASGFTFSDFGMHWVRQAPEKGLEWVAYSSSGGTTVYYADTVKGRLTLSRDNSKNTLFLEMTSLRSEDTAMYYCARASYDGGYFDCWGQGTSLTVSS VL: DIVLTQSPASLAVSLGQRATISCRASKSVSTSGYSYIHWYQQKPGQPPKLLIYLASDLESGVPARFSGSGSGAAFTLNIHPVEEEDAATYYCHHSRELPFTFGSGTKLEIKR	no binding	binds	no binding	no binding	no binding
